Test results reported in patent publication US9550817B2, “Men1 gene for diagnosis and treatment of diabetes” (THE TRUSTEES OF THE UNIVERSITY OF PENNSYLVANIA, priority 2006, dated 2017).

Target: T1, menin (Homo sapiens, UniProt O00255)
T1 construct: made in house; host or cells: E. coli
T1 sequence (O00255 1-610): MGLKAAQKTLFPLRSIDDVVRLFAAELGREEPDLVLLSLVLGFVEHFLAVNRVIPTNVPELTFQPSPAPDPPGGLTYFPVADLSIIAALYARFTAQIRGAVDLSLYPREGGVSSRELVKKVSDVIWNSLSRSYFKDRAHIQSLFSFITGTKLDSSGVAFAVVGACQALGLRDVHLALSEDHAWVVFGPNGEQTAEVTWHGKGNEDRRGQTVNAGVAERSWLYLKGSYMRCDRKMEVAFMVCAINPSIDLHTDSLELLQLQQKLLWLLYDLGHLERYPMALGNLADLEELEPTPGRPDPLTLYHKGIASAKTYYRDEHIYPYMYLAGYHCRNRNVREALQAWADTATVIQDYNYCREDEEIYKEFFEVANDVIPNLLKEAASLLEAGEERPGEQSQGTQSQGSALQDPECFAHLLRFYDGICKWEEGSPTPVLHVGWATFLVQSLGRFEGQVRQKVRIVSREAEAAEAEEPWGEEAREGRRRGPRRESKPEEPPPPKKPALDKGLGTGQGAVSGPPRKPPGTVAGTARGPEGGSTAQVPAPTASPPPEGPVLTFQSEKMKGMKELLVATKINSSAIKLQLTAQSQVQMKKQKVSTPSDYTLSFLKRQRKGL
Experiment: Pull-down of menin by biotinylated peptides on streptavidin-agarose beads, Western blot with anti-menin antibody
Format: binding
Conditions: menin expressed in and purified from E. coli
Description: Biotinylated peptides were synthesized at the Peptide synthesis facility at Yale University, and loaded to streptavidin-agraose beads (Invitrogen, Inc), and incubated with menin expressed in and purified from E. coli. After multiple washings, the beads were analyzed via Western blot analysis using an anti-menin antibody.
Biotinylated peptides were synthesized, loaded to streptavidin-agraose beads (Invitrogen Inc), and incubated with menin expressed in and purified from E. coli. After multiple washings, the beads were analyzed via Western blot analysis using an anti-menin antibody. […] Especially, the peptide designated the sequence […] (SEQ ID No. 7).

binding of peptide to menin in vitro (FIG. 12): able to react with Men1
Sequence: MAHSCRWRFPGSGSCRWRFP (Human) [SEQ ID No. 7, short synthetic peptide from the N-terminus of MLL]
